# B1: Her2/neu246A1 (peptide)
# peptide: APKHSDCLA
# notes: Synthetic optimized peptide; Her2/neu246 with A at position 1
# B2: APRVSIRLPL (SEQ ID NO: 46) (peptide)
# peptide: APRVSIRLPL
# B3: Her2/neu1069L9 (peptide)
# peptide: APRSPLAPL
# notes: Synthetic optimized peptide; Her2/neu1069 with L at the C-terminal position
# B4: Hsp70397R3L9 (peptide)
# peptide: APRSLGLEL
# B5: APRMHCAVDL (SEQ ID NO: 45) (peptide)
# peptide: APRMHCAVDL
# B6: TERT444A1 (peptide)
# peptide: APRRLVQLL
# notes: TERT444 with A at position 1
# B7: Hsp70 137 (10) (peptide)
# peptide: YPVTNAVITV
# notes: also called Hsp137
# B8: Hsp70 115 (peptide)
# peptide: YPEEISSMVL
# notes: also called Hsp115
# B9: TERT4 (peptide)
# peptide: APRCRAVRSL
# B10: APRRRLGCEL (SEQ ID NO: 51) (peptide)
# peptide: APRRRLGCEL
# B11: APRALVETL (SEQ ID NO: 49) (peptide)
# peptide: APRALVETL
# B12: APRTKAEML (SEQ ID NO: 57) (peptide)
# peptide: APRTKAEML
# B13: APREYVNAL (SEQ ID NO: 47) (peptide)
# peptide: APREYVNAL
# B14: APRPWTPCL (SEQ ID NO: 52) (peptide)
# peptide: APRPWTPCL
# B15: Hsp70115A1R3 (peptide)
# peptide: APREISSMVL
# notes: Hsp70 115 with A at position 1 and R at position 3
# Target: T1, HLA-B*0702 (human)
# T1 construct: MHC class I molecule on T2-B7 cells; also called HLA-B7
# Test: assay not given
row,Binder,binding result
1,B1,binds

# Target: T1, HLA-B*0702
# Test: RA grade (++ = RA < 1), T2-B7 cells, ME-1 mAb staining
# Description: (§1) The protocol used has been described previously (Rohrlich et al., 2003).
row,Binder,relative affinity (RA): ratio of peptide concentration to reference peptide concentration inducing 20% of HLA-B*0702 expression [ratio]
1,B2,< 1
2,B3,< 1
3,B4,< 1
4,B5,< 1

# Target: T1, HLA-B*0702
# Test: T2-B7 cells, HLA-B*0702 surface expression (ME-1 mAb); ratio to reference peptide CMV265-274 (SEQ ID NO: 9)
# Description: as §1
row,Binder,RA (relative affinity) [ratio]
1,B6,1.4
2,B7,> 10
3,B8,> 10
4,B9,0.74

# Target: T1, HLA-B*0702
# Test: RA grade (+ = 1 < RA < 10), T2-B7 cells, ME-1 mAb staining
# Description: as §1
row,Binder,relative affinity (RA): ratio of peptide concentration to reference peptide concentration inducing 20% of HLA-B*0702 expression [ratio]
1,B10,1 to 10
2,B6,1 to 10
3,B11,1 to 10
4,B12,1 to 10
5,B13,1 to 10
6,B14,1 to 10
7,B15,1 to 10
8,B9,1 to 10

# — patent US20170202936A1 (VAXON BIOTECH, published 2017)
